Data set [1] addresses T1, glycerate kinase (GarK; class II glycerate kinase, MOFRL family) (Thermoproteus tenax, UniProt G4RPE9).
T1 construct: full-length ORF, 398 residues, pET-24a (NdeI/EcoRI), E. coli BL21(DE3), no tag mentioned, conventional purification
Kind of data set: coupled assay, effector study. Format: biochemical. As to conditions: product inhibitor, suggested competitive with ATP; 0.05 mM D-glycerate, 0.05 mM ATP (non-saturating), pH 7.5, 70 °C; mean of two measurements.

The test system of data set [2] is Nc1ncnc2c1ncn2[C@@H]1O[C@H](COP(=O)(O)OP(=O)(O)OP(=O)(O)O)[C@@H](O)[C@H]1O. Description: discontinuous coupled assay (enolase, pyruvate kinase, lactate dehydrogenase; NADH). Format: biochemical, Thermoproteus tenax. As to conditions: D-glycerate, 20 mM Mg2+, pH 7.5, 70 °C.
The subject of a further data set is O=C(O)[C@H](O)CO. Described as above. Format: biochemical, Thermoproteus tenax. As to conditions: 5 mM ATP, 20 mM Mg2+, pH 7.5, 70 °C, D-glycerate below 0.3 mM (substrate inhibition above).

Here are results for two compounds from PMC2063504, “Glycerate kinase of the hyperthermophilic archaeon Thermoproteus tenax: new insights into the phylogenetic distribution and physiological role of members of the three different glycerate kinase classes” (BMC Genomics, 2007).

In the case of `Nc1ncnc2c1ncn2[C@@H]1O[C@H](COP(=O)(O)OP(=O)(O)O)[C@@H](O)[C@H]1O` [ADP], the “% activity of control at 0.1 mM” value in data set [1] turned out to be 39.1%.

Consider “glycerate kinase (GarK; class II glycerate kinase, MOFRL family) (Thermoproteus tenax Kra 1)”, for which, in data set [2], the Michaelis constant (Km) is 30 ± 10 µM and the kcat was found to be 3.12 s⁻¹. Besides, in the data set with O=C(O)[C@H](O)CO, the Michaelis constant (Km) stood at 20 ± 10 µM and the turnover number (kcat) was 3.57 s⁻¹.

The term Km denotes the concentration of substrate that gives half-maximal velocity. Broadly, the kcat is the maximal rate divided by the concentration of active sites.
